The target in this test is T1, MBD3-GFP (methyl-CpG-binding domain protein 3 fused to GFP), O95983.
T1 chain: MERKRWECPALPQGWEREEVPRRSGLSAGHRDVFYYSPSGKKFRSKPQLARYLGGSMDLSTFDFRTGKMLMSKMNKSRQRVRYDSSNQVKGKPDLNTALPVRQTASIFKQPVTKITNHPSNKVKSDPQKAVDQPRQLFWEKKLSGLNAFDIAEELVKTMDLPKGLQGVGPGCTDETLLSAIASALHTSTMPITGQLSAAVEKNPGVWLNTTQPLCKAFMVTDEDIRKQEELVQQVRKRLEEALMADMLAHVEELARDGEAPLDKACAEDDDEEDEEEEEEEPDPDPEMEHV
Put plainly: photon counting histogram. Conditions: remark: other sources report otherwise.

B1: MBD3-GFP (methyl-CpG-binding domain protein 3 fused to GFP), O95983 1-291 (natural protein)
chain: T1 chain
Consider B1, for which the dimer percentage (G1-phase) is 84%, the dimer percentage (G2-phase) came out at 16% and the dimer percentage (S-phase) worked out at 48%.

These data come from article PMC4381056.
